Target: rhCD39-ECD
Experiment: BLI
Details: 30.0 °C

TTX-030
Kd (pH 6.5): approximately 1.5 nM
Kd (pH 7.4): approximately 1.5 nM

From publication PMC7646477
